Experimental findings from publication PMC11061317 are described below.

The target in the test is GST-tagged Rheb-G63V expressed in HEK293T (UniProt Q15382). Nature of the test: GST pull-down and immunoblotting, band intensity quantified. Conditions: HEK293T cells, transient co-expression; mean ± SEM (n = 3); parent: est. 1.0; read off a plot. For orientation: A western blot detects proteins with antibodies after separation by electrophoresis.
Sequence of GST-tagged Rheb-G63V expressed in HEK293T (Q15382 whole entry G63V): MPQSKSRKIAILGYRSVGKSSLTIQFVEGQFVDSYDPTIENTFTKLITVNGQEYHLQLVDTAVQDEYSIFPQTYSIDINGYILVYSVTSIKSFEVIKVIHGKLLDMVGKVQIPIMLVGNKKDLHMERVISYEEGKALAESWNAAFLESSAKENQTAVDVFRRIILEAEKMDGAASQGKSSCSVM

Sequence of SFB-tagged ATP6AP1 (wild type, full length) (Q15904 42-470 I469del/V470del): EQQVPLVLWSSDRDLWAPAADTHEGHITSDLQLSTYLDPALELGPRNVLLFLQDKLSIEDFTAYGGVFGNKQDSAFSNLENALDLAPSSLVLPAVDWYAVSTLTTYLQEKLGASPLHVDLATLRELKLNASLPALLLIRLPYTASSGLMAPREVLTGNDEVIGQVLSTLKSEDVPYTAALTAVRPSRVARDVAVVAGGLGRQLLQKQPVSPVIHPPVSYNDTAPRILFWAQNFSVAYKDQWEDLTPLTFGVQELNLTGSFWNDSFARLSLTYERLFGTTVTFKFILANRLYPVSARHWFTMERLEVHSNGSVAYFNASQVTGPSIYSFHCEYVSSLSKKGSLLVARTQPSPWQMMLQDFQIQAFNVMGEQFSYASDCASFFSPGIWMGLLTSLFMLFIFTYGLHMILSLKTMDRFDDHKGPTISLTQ

As to “SFB-tagged ATP6AP1 (wild type, full length) (from UniProt Q15904) I469del; V470del”, the ratio to parent (relative to ATP6AP1) turned out to be 0.77.
